Earlier results on one substance are cited in paper PMC2981439.

For this data set, the target named is quinone MADH (Paracoccus denitrificans) (UniProt P22619).
UniProt P22619, sequence (P22619 58-188, chain 1 of 2): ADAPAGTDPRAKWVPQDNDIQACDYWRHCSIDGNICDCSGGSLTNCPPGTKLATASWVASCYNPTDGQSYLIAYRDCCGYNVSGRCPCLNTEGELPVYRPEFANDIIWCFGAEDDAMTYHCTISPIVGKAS
UniProt P22619, sequence (P29894 29-417, chain 2 of 2, further chain): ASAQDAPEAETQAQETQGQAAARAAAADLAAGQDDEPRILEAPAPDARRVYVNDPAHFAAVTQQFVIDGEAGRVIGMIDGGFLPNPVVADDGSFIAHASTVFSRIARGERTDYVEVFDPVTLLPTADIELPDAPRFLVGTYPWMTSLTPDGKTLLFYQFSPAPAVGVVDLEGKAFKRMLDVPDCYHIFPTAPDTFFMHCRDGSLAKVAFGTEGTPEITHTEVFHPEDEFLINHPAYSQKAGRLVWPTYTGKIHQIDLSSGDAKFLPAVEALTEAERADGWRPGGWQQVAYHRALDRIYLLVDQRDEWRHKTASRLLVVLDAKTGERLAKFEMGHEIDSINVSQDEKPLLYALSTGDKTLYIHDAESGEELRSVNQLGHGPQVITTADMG

Take MauG (from UniProt Q51658): the Kd (as a rule, the constant that tells how readily two partners part at equilibrium) is 10.1 µM.
